Here are results for one substance from publication PMC2814788.

This experiment has as its target C-terminally myc-tagged Sec8 (Sec8-myc) (S. cerevisiae) (UniProt P32855). Kind of experiment: co-IP.
UniProt P32855, sequence (P32855 whole entry): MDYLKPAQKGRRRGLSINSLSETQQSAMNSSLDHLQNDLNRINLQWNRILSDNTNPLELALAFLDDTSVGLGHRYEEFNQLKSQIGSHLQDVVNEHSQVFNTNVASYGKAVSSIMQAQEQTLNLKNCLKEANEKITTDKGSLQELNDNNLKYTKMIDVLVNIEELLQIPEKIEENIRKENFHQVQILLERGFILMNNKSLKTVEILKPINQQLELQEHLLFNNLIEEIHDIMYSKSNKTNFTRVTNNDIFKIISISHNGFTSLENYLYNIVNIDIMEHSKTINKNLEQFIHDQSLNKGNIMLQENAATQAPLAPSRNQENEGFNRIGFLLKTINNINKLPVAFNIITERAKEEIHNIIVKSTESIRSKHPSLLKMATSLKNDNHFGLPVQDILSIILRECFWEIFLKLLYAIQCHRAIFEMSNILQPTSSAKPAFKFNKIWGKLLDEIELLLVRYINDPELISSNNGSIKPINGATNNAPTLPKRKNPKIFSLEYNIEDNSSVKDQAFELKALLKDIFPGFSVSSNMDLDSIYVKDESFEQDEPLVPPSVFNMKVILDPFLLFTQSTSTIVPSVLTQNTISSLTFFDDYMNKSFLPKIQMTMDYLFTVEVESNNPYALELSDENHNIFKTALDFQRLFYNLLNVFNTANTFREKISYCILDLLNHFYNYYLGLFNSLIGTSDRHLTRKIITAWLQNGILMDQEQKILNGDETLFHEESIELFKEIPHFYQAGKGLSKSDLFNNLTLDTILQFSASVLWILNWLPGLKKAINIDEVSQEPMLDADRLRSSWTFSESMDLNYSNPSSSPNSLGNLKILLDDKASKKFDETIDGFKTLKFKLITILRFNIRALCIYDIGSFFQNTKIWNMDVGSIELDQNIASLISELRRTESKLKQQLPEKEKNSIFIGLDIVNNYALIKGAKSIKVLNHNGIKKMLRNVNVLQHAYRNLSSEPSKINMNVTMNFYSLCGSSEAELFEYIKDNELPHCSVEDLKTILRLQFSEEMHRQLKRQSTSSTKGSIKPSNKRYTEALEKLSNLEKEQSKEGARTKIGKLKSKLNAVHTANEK

In the case of “Exo70-E557K (gain-of-function mutant, in yeast lysate) (from UniProt P19658 63-623) (natural protein)”, the reduction of coprecipitated Exo70 against wild type is 25%.
